In article PMC10683472, “Deep Learning-Driven Library Design for the De Novo Discovery of Bioactive Thiopeptides” (ACS Central Science, 2023):

Target: T1, TLR10 (Homo sapiens, UniProt Q9BXR5)
T1 sequence (Q9BXR5 20-576): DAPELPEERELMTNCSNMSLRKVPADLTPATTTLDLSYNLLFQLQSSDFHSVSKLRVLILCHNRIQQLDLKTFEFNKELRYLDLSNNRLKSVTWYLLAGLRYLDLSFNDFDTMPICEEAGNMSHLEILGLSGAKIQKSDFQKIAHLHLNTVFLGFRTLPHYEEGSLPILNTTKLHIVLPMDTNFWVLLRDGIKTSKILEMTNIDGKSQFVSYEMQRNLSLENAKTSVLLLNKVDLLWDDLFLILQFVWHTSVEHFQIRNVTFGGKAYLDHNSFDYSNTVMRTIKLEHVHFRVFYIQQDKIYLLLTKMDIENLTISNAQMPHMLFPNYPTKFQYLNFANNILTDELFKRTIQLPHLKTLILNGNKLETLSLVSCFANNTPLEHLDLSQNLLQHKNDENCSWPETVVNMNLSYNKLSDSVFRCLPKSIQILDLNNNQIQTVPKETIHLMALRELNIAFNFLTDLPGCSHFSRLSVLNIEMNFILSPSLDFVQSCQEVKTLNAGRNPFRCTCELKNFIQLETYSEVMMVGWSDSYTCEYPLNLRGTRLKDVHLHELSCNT
Test: mRNA display affinity selection against TLR10, NGS abundance
Type: binding
Parameters: Chimera protein (extracellular domain, amino acid 20-576;); Fc (chimera); purchased R&D system #6619-TR-050
Conditions: TLR10 selection pulldown (+); Top100 selection hits, NGS

Row | Sequence | Library fraction | Raw reads
1 | SIETTNMVLL | 0.00031 | 30
2 | SIKFVFQGKLAI | 0.00046 | 45
3 | SILFPHQQKLLF | 0.00044 | 43
4 | SILFSIQNKLVL | 0.00021 | 20
5 | SIMFALQQKLLF | 0.004 | 389
6 | SIMIYCNQKIRG | 0.00114 | 111
7 | SIQFKVLQKLAF | 0.00018 | 18
8 | SIVFHLTNKMAF | 0.004 | 391
9 | SIWFPLQRKIAA | 0.00746 | 727
10 | SIYFEKAEKVAF | 0.00071 | 69
11 | SKQVYHKQTIVG | 0.00063 | 61
12 | SLEFPHLVIH | 0.00028 | 27
13 | SLETNSVVWI | 0.00021 | 20
14 | SLETSHLVIY | 0.00035 | 34
15 | SMCVWARQKIVG | 0.00071 | 69
16 | SMEFVKIPLVIH | 0.00041 | 40
17 | SMLLPMQRVVMF | 0.00018 | 18
18 | SMLVWKGQSIRG | 0.004 | 408
19 | SNIVWCGQGIIG | 0.168 | 16419

Row | Sequence | Library fraction | Raw reads
20 | SNSNRYGGLITS | 0.045 | 4431
21 | SNVIYARQHIIG | 0.0005 | 49
22 | SPIHFRSVL | 0.00047 | 46
23 | SRTIYRCQSIRG | 0.008 | 777
24 | SRTNRFGGHMAS | 0.168 | 16419
25 | SSPNRYGGNVNT | 0.00122 | 119
26 | SSYVYHKQRIRG | 0.00022 | 21
27 | STHIYSKQGIRG | 0.004 | 409
28 | STIVFKHQQISG | 0.00018 | 18
29 | STIVFTFQCIKG | 0.012 | 1142
30 | STKNQYGGWSPA | 0.00034 | 33
31 | STLFFMFQGIRG | 0.00019 | 19
32 | STLIYKLQCILG | 0.0008 | 78
33 | SVCVYQHQGIRG | 0.035 | 3411
34 | SVIFNLLRQVAY | 0.00017 | 17
35 | SVMNVFGGNAAT | 0.00029 | 28
36 | SVPFPLQRKLVF | 0.005 | 482
37 | SVSFPLQRKLVF | 0.00065 | 63
38 | TIKFPRLQMLAI | 0.00066 | 64

Row | Sequence | Library fraction | Raw reads
39 | TILFSLQNVRAF | 0.00137 | 134
40 | TIRFTNQNKIAF | 0.038 | 3740
41 | TIYFKLQKAVAL | 0.00055 | 54
42 | TLELQSVVLH | 0.00033 | 32
43 | TLHFRRQNKIAY | 0.020 | 1927
44 | TMFFRRQNAMAL | 0.00074 | 72
45 | TMHFSNQRKLVF | 0.00022 | 21
46 | TMMFPRLGKVAY | 0.00528 | 515
47 | TMQFPLQRRMAI | 0.00468 | 456
48 | TNPYGGNITM | 0.015 | 1427
49 | TNPYGGNVGW | 0.143 | 13980
50 | TYWKACAMSHIP | 0.00237 | 231
51 | VGQVLVKSS | 0.00061 | 59
52 | VGRVYIKSS | 0.00258 | 251
53 | VGYVLVKSS | 0.00033 | 32
54 | VQLHRWGLRM | 0.00032 | 31
55 | WCGATLYSSIS | 0.00024 | 23
56 | WPGSMARDSIS | 0.013 | 1282

Same assay, conditions: TLR10 selection pulldown (-); Top100 selection hits, NGS

Row | Sequence | Library fraction | Raw reads
57 | SIMFALQQKLLF | 0.00189 | 226
58 | SITFPMQRHIAF | 0.00112 | 133
59 | SITFQTLNKIAY | 0.006 | 714
60 | SIVFHLTNKMAF | 0.004 | 462
61 | SIWFPLQRKIAA | 0.026 | 3115
62 | SKIIIRGQGIRG | 0.00238 | 284
63 | SKIIWSNQAIRG | 0.007 | 798
64 | SLELKHIVFH | 0.00222 | 265
65 | SLELSRVNVVIH | 0.00163 | 194
66 | SMCVWARQKIVG | 0.00054 | 64
67 | SMHYRFLCKIAF | 0.001 | 117
68 | SMLFRLANKIAF | 0.040 | 4812
69 | SMLVWKGQSIRG | 0.002 | 248
70 | SMYFESLNKLAV | 0.00044 | 52
71 | SNIVWCGQGIIG | 0.077 | 9156
72 | SNSNRYGGLITS | 0.005 | 582
73 | SQFNHAMGWYVN | 0.00131 | 156
74 | SRIIYMNQSIRG | 0.00043 | 51
75 | SRTIYRCQSIRG | 0.00125 | 149
76 | SRTNRFGGHMAS | 0.008 | 995
77 | SSPNRYGGNVNT | 0.00077 | 92
78 | SSTVWKLQTICG | 0.00046 | 55
79 | STHIYSKQGIRG | 0.001 | 116
80 | STIVFTFQCIKG | 0.008 | 919

Row | Sequence | Library fraction | Raw reads
81 | SVCVYQHQGIRG | 0.010 | 1149
82 | SVDFGQVVIH | 0.00054 | 65
83 | SVEVWVNQKIRG | 0.003 | 343
84 | SVPFPLQRKLVF | 0.00118 | 141
85 | SVVVWHAQPIMG | 0.006 | 714
86 | TCFSHYLIM | 0.002 | 237
87 | TFLGGNVRAWI | 0.00088 | 105
88 | TIELTHAYLH | 0.00054 | 64
89 | TILFPLQRRLVV | 0.0018 | 215
90 | TILFSLQNVRAF | 0.0033 | 394
91 | TIRFTNQNKIAF | 0.095 | 11292
92 | TLELKAIVFH | 0.00044 | 52
93 | TLHFRRQNKIAY | 0.011 | 1314
94 | TMCFTFSKMVAF | 0.00058 | 69
95 | TMLFRLQSKLAI | 0.013 | 1571
96 | TMMFPHQRKLAF | 0.009 | 1056
97 | TMMFPRLGKVAY | 0.003 | 351
98 | TMQFPLQRRMAI | 0.002 | 241
99 | TNPYGGNITM | 0.00949 | 1132
100 | TNPYGGNVGW | 0.238 | 28345
101 | TYWKACAMSHIP | 0.00056 | 67
102 | VGQVLVKSS | 0.00086 | 102
103 | VGRVYIKSS | 0.00364 | 434
104 | WPGSMARDSIS | 0.018 | 2179

Target: T2, IRAK4 (Homo sapiens, UniProt Q9NWZ3)
T2 sequence (Q9NWZ3 1-460): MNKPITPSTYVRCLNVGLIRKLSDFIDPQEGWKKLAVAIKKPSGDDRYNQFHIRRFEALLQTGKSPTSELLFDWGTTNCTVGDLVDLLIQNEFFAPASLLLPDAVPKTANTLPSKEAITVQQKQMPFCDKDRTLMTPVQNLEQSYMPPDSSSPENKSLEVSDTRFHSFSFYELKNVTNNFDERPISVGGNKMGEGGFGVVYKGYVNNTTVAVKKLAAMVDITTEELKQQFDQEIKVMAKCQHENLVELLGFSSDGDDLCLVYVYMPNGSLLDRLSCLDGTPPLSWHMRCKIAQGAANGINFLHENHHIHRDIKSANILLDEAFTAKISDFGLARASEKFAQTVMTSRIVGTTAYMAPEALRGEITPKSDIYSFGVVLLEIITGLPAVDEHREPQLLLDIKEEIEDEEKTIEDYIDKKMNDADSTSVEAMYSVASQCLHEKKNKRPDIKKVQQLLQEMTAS
Test: mRNA display affinity selection against IRAK4, NGS abundance
Type: binding
Parameters: acids 1-460; NP_057207.2) was purchased from Carna Biosciences; purchased Carna Biosciences (Kobe, Japan)
Conditions: IRAK4 selection pulldown (+); Top100 selection hits, NGS

Row | Sequence | Library fraction | Raw reads
105 | AIRWKNRNYK | 0.0009 | 95

Same assay, conditions: IRAK4 selection pulldown (-); Top100 selection hits, NGS

Row | Sequence | Library fraction | Raw reads
106 | AIRWKNRNYK | 0.00032 | 43
